Experiments:
[1] = molecular target: soluble human FcRn (complex of FcRn extracellular domain and β2-microglobulin) (human) (UniProt P55899); assay: SPR (Biacore 3000), antibody captured on Protein L or anti-human kappa antibody, human FcRn as analyte, pH 6.0, steady state affinity
[2] = molecular target: soluble human FcRn (complex of FcRn extracellular domain and β2-microglobulin) (human) (UniProt P55899); assay: as above; remark: listed apart in the source
[3] = molecular target: soluble human FcRn (complex of FcRn extracellular domain and β2-microglobulin) (human) (UniProt P55899); assay: SPR (Biacore 3000), method of Example 6: captured antibody, human FcRn as analyte, pH 6.0, steady state affinity
[4] = molecular target: recombinant soluble human IL-6 receptor (SR344) (human) (UniProt P08887); assay: SPR (Biacore T100), antibody captured on anti-IgG (γ-chain specific) F(ab')2, SR344 as analyte, pH 7.4, 37° C.
Chain of recombinant soluble human IL-6 receptor (SR344) (human) (P08887 20-344): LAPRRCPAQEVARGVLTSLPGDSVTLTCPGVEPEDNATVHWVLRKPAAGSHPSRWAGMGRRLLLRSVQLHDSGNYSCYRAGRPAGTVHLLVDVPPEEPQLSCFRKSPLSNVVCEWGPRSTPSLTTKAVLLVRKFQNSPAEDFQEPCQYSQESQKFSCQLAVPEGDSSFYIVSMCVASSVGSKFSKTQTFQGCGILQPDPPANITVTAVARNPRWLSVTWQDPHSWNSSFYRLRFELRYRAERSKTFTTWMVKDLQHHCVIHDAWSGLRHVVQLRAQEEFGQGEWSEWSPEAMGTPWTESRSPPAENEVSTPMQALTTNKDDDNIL

Chain of soluble human FcRn (complex of FcRn extracellular domain and β2-microglobulin) (human) (P55899 24-290 limits assumed, chain 1 of 2): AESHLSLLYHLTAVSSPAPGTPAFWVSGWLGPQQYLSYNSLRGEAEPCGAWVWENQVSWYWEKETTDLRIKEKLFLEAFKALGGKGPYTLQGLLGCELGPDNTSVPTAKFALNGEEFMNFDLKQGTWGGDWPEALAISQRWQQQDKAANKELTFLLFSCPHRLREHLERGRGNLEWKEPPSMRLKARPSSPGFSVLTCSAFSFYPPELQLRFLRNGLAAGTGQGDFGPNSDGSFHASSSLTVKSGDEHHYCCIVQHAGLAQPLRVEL
Chain of soluble human FcRn (complex of FcRn extracellular domain and β2-microglobulin) (human) (b2m, as listed by the source limits assumed, chain 2 of 2): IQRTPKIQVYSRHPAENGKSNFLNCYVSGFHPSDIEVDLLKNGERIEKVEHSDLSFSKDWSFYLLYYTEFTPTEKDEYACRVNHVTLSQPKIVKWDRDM

Which results are given for “WT-IgG1 (humanized PM-1 antibody, TOCILIZUMAB; humanized anti-human IL-6 receptor IgG1 antibody)”?
Kd [1]: 2.07 µM; Kd [2]: 1.62 µM; Kd [3]: 1.42 µM; Kd [4]: 0.0027 µM; koff [4]: 0.0011 s⁻¹; kon [4]: 400000 M⁻¹ s⁻¹

From patent publication US20100298542A1
